Source: publication PMC3034650 (FEBS letters, 2010)

Biological target: T1, Human IκBα(67-287), unhydroxylated (human, UniProt P25963 67-287)
T1 sequence (looked up): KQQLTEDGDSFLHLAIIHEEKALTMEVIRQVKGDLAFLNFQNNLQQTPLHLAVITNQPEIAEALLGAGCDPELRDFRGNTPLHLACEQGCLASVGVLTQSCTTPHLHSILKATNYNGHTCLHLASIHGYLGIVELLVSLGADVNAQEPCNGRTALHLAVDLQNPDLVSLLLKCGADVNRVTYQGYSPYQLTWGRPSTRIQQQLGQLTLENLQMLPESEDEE
Experiment: SPR

Kd: 0.062 ± 0.012 nM
B1: NFκB (p50(248-321)/p65(190-321)) (complex)
chain 1: LKIVRMDRTAGCVTGGEEIYLLCDKVQKDDIQIRFYEEEENGGVWEGFGDFSPTDVHRQFAIVFKTPKYKDVNI
chain 2: NTAELKICRVNRNSGSCLGGDEIFLLCDKVQKEDIEVYFTGPGWEARGSFSQADVHRQVAIVFRTPPYADPSLQAPVRVSMQLRRPSDRELSEPMEFQYLPDTDDRHRIEEKRKRTYETFKSIMKKSPFNGP
modifications: biotin at the N-terminus
